Key:
[1] = target: PfEBA175 FL (entire ectodomain of P. falciparum 3D7 EBA175), Cd4-tagged and enzymatically biotinylated (P. falciparum (3D7)); test: SPR; equilibrium; biotinylated PfEBA175 FL immobilised, serial dilutions of PfEBA175 FL or RII injected; responses at equilibrium as a fraction of calculated Rmax; 37 °C, HBS-EP
[2] = target: native glycophorin-A extracted from human erythrocytes, chemically biotinylated (human) (UniProt P02724); test: SPR; equilibrium; biotinylated GYPA immobilised on streptavidin chip, biotinylated Cd4 tag as reference; SEC-separated analyte injected at 20 μl/min; BIAcore T100, 37 °C, HBS-EP; steady-state 1:1 fit
[3] = target: native glycophorin-A extracted from human erythrocytes, chemically biotinylated (human) (UniProt P02724); test: SPR; kinetic; biotinylated GYPA immobilised on streptavidin chip; analyte injected at 100 μl/min; 37 °C, HBS-EP; nonlinear fit of association and dissociation phases
[4] = target: PfEBA175 FL (entire ectodomain of P. falciparum 3D7 EBA175), Cd4-tagged and enzymatically biotinylated (P. falciparum (3D7)); test: SPR; homophilic; biotinylated PfEBA175 FL immobilised on streptavidin chip, soluble PfEBA175 FL as analyte; quantified from the dissociation phase; 37 °C, HBS-EP

Substance | fold weaker binding affinity to PfEBA175 FL than that of PfEBA175 FL [1] | Kd [2] | koff [3] | kon [3] | koff [4]
PfEBA175 RII (region II, tandem DBL domains F1 and F2), Cd4- and hexa-His-tagged, soluble (domain or fragment) | 70 fold | 2520 nM |  |  | 
PfEBA175 FL (entire ectodomain of P. falciparum 3D7 EBA175), Cd4- and hexa-His-tagged, soluble (domain or fragment) |  | 260 nM | 0.0968 s⁻¹ | 860000 M⁻¹ s⁻¹ | 0.04 s⁻¹

Source: article PMC3820850
